# According to patent US20190367619A1 (ARGENX, published 2019):
# T1: TEV-cleaved wild-type recombinant human galectin-10 (soluble, in Fab complexes, or as recombinant galectin-10 … (human, UniProt Q05315 1-142))
# T1 sequence: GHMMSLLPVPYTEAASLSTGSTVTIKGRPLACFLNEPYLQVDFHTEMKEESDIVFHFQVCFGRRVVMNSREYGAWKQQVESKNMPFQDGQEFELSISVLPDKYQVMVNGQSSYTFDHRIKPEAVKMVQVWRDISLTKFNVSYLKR
# T2: human galectin-10-His (recombinant human galectin-10 with TEV-cleavable N-terminal His-tag) (human)
# T2 construct: SEC-MALLS: dimer in solution; also called Gal10-His; humanGal10-His
# T2 chain: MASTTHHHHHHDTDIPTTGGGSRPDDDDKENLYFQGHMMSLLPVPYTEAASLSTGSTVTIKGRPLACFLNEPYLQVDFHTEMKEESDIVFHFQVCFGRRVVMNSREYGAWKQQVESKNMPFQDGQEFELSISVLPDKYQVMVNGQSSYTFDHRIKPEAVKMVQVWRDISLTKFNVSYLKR
# What was measured:
# [1] = molecular target: T1, TEV-cleaved wild-type recombinant human …; assay: cell-based or functional assay
# [2] = molecular target: T2, human galectin-10-His (recombinant …); assay: BLI tandem on galectin-10-His; competitor: saturating 4E08 mIgG1 (10 ug/mL)
# In short: (§1)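 Read-out is the BLI wavelength shift (nm) from the competitor antibody, measured after the captured antigen has already been saturated by another antibody. Absence of shift means both antibodies share the binding site.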
# [3] = molecular target: T2, human galectin-10-His (recombinant …); assay: BLI tandem on galectin-10-His; competitor: saturating 6A08 mIgG1 (10 ug/mL)
# In short: as §1
# [4] = molecular target: T2, human galectin-10-His (recombinant …); assay: ELISA binding (summary table), mouse IgG1
# [5] = molecular target: T2, human galectin-10-His (recombinant …); assay: BLI tandem on galectin-10-His; competitor: saturating 6B06 mIgG1 (10 ug/mL)
# In short: as §1
# [6] = molecular target: T2, human galectin-10-His (recombinant …); assay: BLI tandem on galectin-10-His; competitor: saturating 1D11 mIgG1 (10 ug/mL)
# In short: as §1
# [7] = molecular target: T2, human galectin-10-His (recombinant …); assay: BLI tandem on galectin-10-His; competitor: saturating 1C09 mIgG1 (10 ug/mL)
# In short: as §1
# [8] = molecular target: T2, human galectin-10-His (recombinant …); assay: BLI tandem on galectin-10-His; competitor: saturating 2C07 mIgG1 (10 ug/mL)
# In short: as §1
# [9] = molecular target: T2, human galectin-10-His (recombinant …); assay: BLI tandem on galectin-10-His; isotype control as saturating antibody (10 ug/mL)
# In short: as §1
# [10] = molecular target: T1, TEV-cleaved wild-type recombinant human …; assay: cell-based or functional assay; remark: listed apart in the source
# For 100% Solubilization of CLC (Conc uM) in this document: time not given here.
binder,measurement,setting,value
"1D11 mouse IgG1 (antibody, V domains shown, VH on mouse IgG1 heavy chain constant domains (CH1-CH2-CH3), VL on mouse lambda light chain constant domain; also called 1D011; 1D11 mIgG1) VH: QVQLVESGGGLVQPGGSLRLSCAASGFTFDDYAMSWVRQAPGKGLEWVSGISWNGGSTYYAESMKGRFTISRDNAKNTLYLQMNSLKSEDTAVYYCAKDRNLGYRLGYPYDYWGQGTQVTVSS VL: QSVLTQPPSVSGSPGETVTISCAGTSSDVGYGNYVSWYQQLPGMAPRLLIYEVNKRASGITDRFSGSKSGNTASLTISGLQSEDEGDYYCASYRSSNNAVFGGGTHLTVL",100% Solubilization of CLC (Conc uM),[1],7.86 µM
same,binding signal (nm),[2],0 nm
same,binding signal (nm),[3],0.01 nm
same,EC50,[4],0.1 nM
same,binding signal (nm),[5],0 nm
same,binding signal (nm),[6],0.06 nm
same,binding signal (nm),[7],0.01 nm
same,binding signal (nm),[8],0.02 nm
same,binding signal (nm),[9],1.18 nm
same,dissolution of in vitro grown Gal10 crystals (spinning disk confocal microscopy),[10],≤ 90 min
